Results from the DeepSol protein solubility set.

Experiment: soluble on expression in E. coli; label from the status in PepcDB or PDB records

Row | Sequence | soluble on expression in E. coli
1 | MGQRVDKEVTPRFVELGQVSAIRTEPEIAYRSNQGVTRQRQQTKVFKLVSTYDKVAVKNAIRAAYRQVFERDLEPYIINSEFTALESKLSNNEINVKEFIEGLGTSELYMKEFYAPYPNTKVIEMGTKHFLGRAPLNQKEIQQYNQILASQGLKAFIGAMVNGMEYLQTFGEDTVPYRRFPTLPAANFPNTERLYNKLTKQDKELEHHHHHH | soluble
2 | MGSDKIHHHHHHMLGENIYLQRTQIGMTQENLSDYLHLTKTTISKWENNQAKPDIDYLILMANLFDISLDDLVGYQKTLSDDQRNQLIKDLKIKANVLSERDFFQEVKELSKQFPNDFKTLLIMINMVLSNLTNLNDSEMKEWSLSTLNKIISKTVVESDLQTAIMFKTVVLFHNLEYDEVINLYQNSPYKLGEELLLANSFFAKVDVYRAKQVLQVEIYQQILLVCEYLLSLSTFEVEENKGDIFERLEHMIEAFQLNSLHPNTVIKCYYSLACHYSKSDDDKALGYLKQCFKSLKQLLQRFELHGDTFFYTIDDWLETIPTGIAPPTSQLQVIERVEDLFQNSQFKELSGHKEFQQMIQKLNDLKKDY | not soluble
3 | MSGFLEQRLGHCLRQMAEKGLEALLVTHLTNSYYLTGFSGTAATVLITAKRRVLITDSRYTLLAKASVEGFDIIESRTPLKVVAELLEADQIDCLGFEDQVSFSFYQAMQAELSGITLLAQSGFVEHLR | soluble
4 | MSLTVSKINEKATPVKKWTVYLVQHTHTDIGYTKPQTEILSEHLRYIDYAIEYCEQTKDYTNDAKFRWTCESAWAVDEYLKNRPEEQVNKLKKYIAEGQIEVASMYFNMSEIVDENSFKTFLQPVKEFRKHGIPSALAMQNDVNGIAWCLADYLPDLGIKYLWMGEHHYKSQVPFNMPTVFQWESPSGKPILTYRADHYNTGNFWGIEQGDIQKTEPKLLHYLSELERKHYPFDAVGVQYSGYFTDNSPPSIIECKLIREWNEKYAYPKLRSATASEFMDYVTERYGDKIPAYRAAYPDWWTDGFGSAARETAASRKTHSDMTAVEGLLSMAVLKDKCLPQATHQQIEHIHESLLFYDEHTFGASESVSDPLCENSQVQWGEKSAYAWEAVKRTQMLYETSVGLLQGDLRRGKNPTLTIFNTLNWKRSEMLTVYIDFEVIPRNQFFEITDFQGHSLKVQPIRYRREGCYYAIFAEDIPPMGYKTFEIVFKQPSTDTGTITINNASIENHFYKLQLNPDKGTIQSLYDKELNCELVDSSSPWELGAFIYEKLGNRDQLAQYRLDDYNRTGLSECRIIDSSNGPIYQRILLQGKSPGTDEAFGVNLEIKLYHDTKRIELEYAIKRLPETDPSGIYVAFPFQLPEGKLAFDVQGGTVISGKNQLEGTSTDWNTVQNFVSVQNNQAQIIIGSSLIPLYQLGDINLGKFQYQKQYERPHVYSWVMNNYWNTNFKASQEGEFRWSYHLTSSVDPSNNLATKFGWSSRIPLYARVMPTGTENHKPTEYSAFHFEKDNFLMTSCTPSKEEGYILLNIREIDGKRTNLRILNEDGQTIPFTIVNAIEEKLENETSEHIFEGYQNKFIKIKREGHHHHHH | soluble
5 | MGHHHHHHSHMAASTASQRPLKGILKDNTSTTSSMVASAEHPRGSVHEQLSKKSQKWDEMNILATYRPADKDYGLMKIDEPSTPYHSTMGDDEDACSDTETTEAMATDSLAKNLAAAEGLEPKYQVQEQESSGEEDSDLSPEEREKKRQFEMRRTLHYNEGLNIKLARQLISKDLHDDDKVEEMLETAHGESMNTEESNQGSTASDQQQNKSRSS | not soluble
6 | MHQAPATSTDENPPIESDVPMHHVYPSHHHHQHYQLPHLQQHPHPYSYPLYTFPYPIAPAFHQAQNPPMTSSVASGANGEHHHQPQQFFAPQYQVIPAGAIPVSTINIDPSQICPVDQMGMWTLPPPTGPNGMRYGIPIPAPLVPQITSSIMEASKMTSSTHTNATILNAMTASTSSNDSSSESGVSGVKEAKDEKKKSKIQADEKLRHEERQSTSDYTDDDPIPFTSRRSITGSVSYNYAEQIAERRRVEQQQEDRERQEMLEVERQRRVLEDRRNSEEEIRKQAELDRVEKDRLRMEQAAAAMEKARKEAELAKRARIYKHVFRGAEEEGGTEQLEELEQKILGVDIETGRRLLKEVSEVEWHKKQDEAEIRKNAPPQSDRSAHNLSSLSSGNQSARGRSSSISSPCKPDTSFTRNSIGRRSVRTTSREKQQESPKSSDQAVQHPLAASTPVRRPPRQPQALPTQDEIHVAREVPLANKSTTPSPTRSEMLRSAAIYCPINRDPLSQREELRAINRSTSNTGAYHNNNNNNNSKFEGAGVSRYNEITQTALFGPIATRNSIRRGTMRGTGLPSPPSVRVSTQNHQNQQRTSSFDESSSGGEEGGSISPDLGHKNFESPLPSSTENVHPASNSPPMKQIEGFEFKTPTRARSALSSPMSNFMNGGDNDSPISRPASRLMQRLEQKGTIRRDDEIISQEIRRVAETNLSRSPSLASLRGSMSNLAFRASQLNLAGTSGELPPNLTKFASVNSPARQSLSSMKKTTDRQAAVLERLGRLRESLHAGKNYTPPRNGISSSSRITTPAQTPPISPRPVM | not soluble
7 | MRGSHHHHHHGMASMVVNNPNNWHWVDKNCIGWAKEYFKQKLVGVEAGSVKDKKYAKIKSVSSIEGDCEVNQRKGKVISLFDLKITVLIEGHVDSKDGSALPFEGSINVPEVAFDSEASSYQFDISIFKETSELSEAKPLIRSELLPKLRQIFQQFGKDLLATHGNDIQV | soluble
8 | MGSDKIHHHHHHMTPSTPTLATRWEPLPPRVVAELLGPSSARWWLSGGVALDHWLGTNTREHDNIDVSTTIADLPQVVQDLPAPFSAWAPSGDGVVPWAEADMDADLQPIRIHDDATGAWVMQVDVEDGTDSLWVYRRDPRLQLPWDRAVIDVDGIPTGAPEVQLVWKALRPRPEDDADKDAVLPELSNEARAWWEHAILTIHPHSSWSIHVRTPFAPGKASWNRTRR | not soluble
9 | MAYITYQQYLDLYGTCPISEEEFPVYAGLASDMIDSITRYRIVEGGGISALPSILQTLVQKAAAAQVLYFTQIGLETVLTGQAGQSFTVGKVSVSGGALSSTTTKPGALMVSPFALSLLEQTPLMERGVHVCSDRFLNPFWGILEHHHHHH | soluble
10 | GMIRLLYLLVKPAGMSDETFRAECLRHYEMSHDVPGLHKYEVRLVAEQPTDTHVPFFDIGHVDAIGECWFKDDAAYATYMASDIRKAWFEHGKTFIGQLKPFRTAPVAGDEPAS | soluble
11 | MDEDVGLEATNYSRGDESRSEEQEKNVVRWRIVQQSTGPNPKPRHGHRAVVLKELIVIFGGGNEGMIDELHAYNTQKREWTAPQCCGDVPTPAAAFGAISLGNKIYRFGGMTEYGKYTNDLYELQSTRWEWRRLNPRVHSNGHLPCPRIGHSFVVSQKSQKAYVFGGLSNDLNDPKRNVPHYLDDLYVINLSGPQHLIWEKLNATGPGPISRESHTAVIYEKDSISRMVVYGGMNGVRLGDLWYLNLNTLHWTEIKFDDPRTGIPPMPRSLHSSVLIGDKMFVYGGWVPLLEHASTEQQTEKEWKCTSSLGCWNITEDRWVPLHLYCSDEDTIPRGRAGHCAAAVGDRMYIWSGRDGYRKAWSNQVCCRDMWLLDTILPEQPGKVQLGRAGFNSLEISWPIVQGASGYFLQIGFGDAKEQSVSPIKRATTSPRKQPSIVPPSQKETEQSPKKPQGTAPSIISTQGTTYTAPADPKPATDEGGLPQDLFEDTEKNETASPKRSNDAQSADSSTCEQKKTDESGLEEDSEKDQKPSDAGETDEMKEENGDDDLPWFDVGIIDKATINVTHYFNDRQQSLEKQLNDLIDHNAFKCVNDSVFTTEDKIPLINGQSYRFRVSAINGLGKGAWSETASCKTCVPGYPSAPSSIRITKSHEGAQLTWEPPSNTNISGKIIEYSVYLAVKNQSANSADSQLAFMRVYCGPQADCQVLQSNLGTAFVDQTNKPAIIFRIAARNEKGYGPATQVRWLQDQQKIPVRTNYPNNSGFIYQQHGGQQKRARFDHQ | not soluble
12 | MAPVVCDVCGVRRAVVLQRHTGRRLCRECFREDIVGRVRREVERWGMIGPGETVLLGLSGGKDSYVLLDALSEIVGPSRLVAVSIVEGIPGYNREGDIEKIRRVAAARGVDVIVTSIREYVGASLYEIYSRARGRGAGHAACTYCGISRRRILALYARLYGAHKVATAHNLDDEAQTAIVNFLRGDWVGMLKTHPLYRSGGEDLVPRIKPLRKVYEWETASYVVLHRYPIQEAECPFINMNPTLRARVRTALRVLEERSPGTLLRMMERLDEELRPLAQAMKPSSLGRCERCGEPTSPKRRLCKLCELLEEAGFQEPIYAIAGRGKRLRLQSPTASPG | not soluble
13 | MVRVPLTAEELERGQRLGELLRSARGDMSMVTVAFDAGISVETLRKIETGRIATPAFFTIAAVARVLDLSLDDVAAVVTFGPVSTS | soluble
